Target: recombinant PhaC (PHA synthase Class III) from Arthrospira platensis (Arthrospira platensis)
Experiment: SEC; Sephadex-G50 column, 100 mM sodium phosphate pH 7.4, 1 mL/min, A280; masses estimated from retention times of standards (alcohol dehydrogenase 150 kDa, BSA 66 kDa, ovalbumin 44 kDa); dimer and monomer peaks both seen

In the case of “recombinant PhaC (PHA synthase Class III) from Arthrospira platensis (enzyme)”, the stoichiometry N was 2.

Source: paper PMC10215190
